Reference: the Human Domainome abundance scans (Beltran et al. 2025)
± gives the uncertainty stated by the source.

B1: Gamma-crystallin D, residues 90 to 170; numbered along this chain, P07320 (parent)
chain: IRLYEREDYRGQMIEFTEDCSCLQDRFRFNEIHSLNVLEGSWVLYELSNYRGRQYLLMPGDYRRYQDWGATNARVGSLRRV

Variants of: B1
Experiment: abundance fitness (aPCA) (normalised: wild type 0, dead -1); higher = more abundant; growth selection in yeast, the domain comes from the species named
Conditions: Homo sapiens

Abundance fitness: each site, then its substitutions
D61: H -0.25 ± 0.36; N -0.016 ± 0.18; E 0.043 ± 0.11; L -0.093 ± 0.092; R -0.109 ± 0.085; S -0.027 ± 0.078; F -0.094 ± 0.15; M -0.008 ± 0.14; K -0.096 ± 0.17; W -0.237 ± 0.12; I -0.332 ± 0.15; V -0.07 ± 0.081; G 0.004 ± 0.058; Q -0.038 ± 0.12; T -0.024 ± 0.18
Y62: T -0.251 ± 0.093; R 0.229 ± 0.06; D -0.904 ± 0.18; K 0.11 ± 0.16; A 0.153 ± 0.056; P -0.919 ± 0.17; L 0.178 ± 0.068; C 0.264 ± 0.15; E -0.401 ± 0.085; N -0.125 ± 0.14; W 0.026 ± 0.094; G -0.242 ± 0.064; F -0.147 ± 0.21; V 0.041 ± 0.066; S 0.016 ± 0.058; I -0.061 ± 0.3; Q -0.301 ± 0.14; H -0.076 ± 0.18; M 0.096 ± 0.086
Q66: C -0.067 ± 0.14; H 0.108 ± 0.18; F -0.004 ± 0.15; P -0.016 ± 0.1; K 0.269 ± 0.17; S 0.018 ± 0.095; R -0.06 ± 0.077; M -0.048 ± 0.15; G 0.038 ± 0.053; D -0.14 ± 0.12; N -0.074 ± 0.28; V -0.038 ± 0.065; W 0.018 ± 0.086; T -0.073 ± 0.087; E -0.022 ± 0.13
G69: A 0.038 ± 0.079
P59: D 0.14 ± 0.15; M -0.037 ± 0.13; S -0.007 ± 0.079; W -0.083 ± 0.12; I -0.157 ± 0.38; C 0.011 ± 0.15; Y -0.222 ± 0.34; E -0.005 ± 0.1; A 0.088 ± 0.092; H -0.052 ± 0.24; V -0.099 ± 0.068; R -0.088 ± 0.073; F -0.353 ± 0.22; L -0.085 ± 0.082; Q 0.05 ± 0.13; K -0.118 ± 0.13; G 0.065 ± 0.076; N -0.027 ± 0.15
G60: T -0.122 ± 0.14; D -0.08 ± 0.15; R -0.04 ± 0.055; S 0.064 ± 0.086; E 0.155 ± 0.09; K 0.029 ± 0.12; Y -0.176 ± 0.16; H -0.225 ± 0.2; F -0.188 ± 0.2; W -0.133 ± 0.1; Q 0.001 ± 0.14; N -0.167 ± 0.34; L -0.197 ± 0.064; P -0.702 ± 0.17; M -0.128 ± 0.11; A -0.038 ± 0.069
D67: Y -0.125 ± 0.3; I -0.155 ± 0.22; S -0.005 ± 0.082; W -0.064 ± 0.15; L -0.084 ± 0.086; V -0.043 ± 0.084; H -0.034 ± 0.24; E 0.049 ± 0.13; C -0.148 ± 0.35; F -0.062 ± 0.4; A -0.101 ± 0.087; P -0.19 ± 0.076; M 0.047 ± 0.19; Q -0.08 ± 0.092; R -0.208 ± 0.075
W68: P -0.067 ± 0.1; M 0.15 ± 0.11; R 0.093 ± 0.054; V 0.087 ± 0.094; Y -0.163 ± 0.33; F 0.194 ± 0.26; I 0.116 ± 0.14; D 0.062 ± 0.22; N -0.117 ± 0.19; L 0.164 ± 0.079; A 0.043 ± 0.047; T 0.149 ± 0.089; K 0.16 ± 0.14; Q -0.355 ± 0.11
M58: S 0.055 ± 0.072; V 0.032 ± 0.063; T 0.125 ± 0.13; R -0.02 ± 0.062; W -0.118 ± 0.09; Y 0.174 ± 0.2
R63: I 0.113 ± 0.21; T 0.039 ± 0.11; D 0.129 ± 0.21; K 0.061 ± 0.13; C 0.097 ± 0.11; W 0.031 ± 0.095; P -0.012 ± 0.09; M 0.132 ± 0.29; L 0.088 ± 0.12; A 0.024 ± 0.065; S -0.037 ± 0.093; N -0.079 ± 0.31; Q 0.072 ± 0.15; F 0.004 ± 0.17; E 0.09 ± 0.093
Y65: F -0.174 ± 0.15; C -0.144 ± 0.12; D 0.044 ± 0.11; Q -0.028 ± 0.18; M 0.089 ± 0.17; E 0.192 ± 0.14; S 0.041 ± 0.099; W 0.005 ± 0.14; T -0.076 ± 0.16; P 0.051 ± 0.11; K -0.113 ± 0.11; H 0.099 ± 0.16; I 0.053 ± 0.19; A -0.093 ± 0.084; L 0.093 ± 0.087; G 0.159 ± 0.06; V -0.047 ± 0.083; N 0.096 ± 0.15
R64: C -0.141 ± 0.11; P -0.423 ± 0.12; N 0.159 ± 0.34; Y 0.035 ± 0.2; Q -0.031 ± 0.12; E -0.226 ± 0.15; T 0.063 ± 0.14; W 0.095 ± 0.081; F 0.04 ± 0.11; G -0.017 ± 0.078; A -0.019 ± 0.068; V -0.044 ± 0.075; M -0.11 ± 0.17; K -0.287 ± 0.23; D 0.167 ± 0.19
